Tests used:
Assay in all cases: Fc receptor binding, method not stated
[1] = target: CD32-H131 (FcγRIIa) (human) (UniProt P12318)
CD64 (FcγRIa) (human) = CD64 (FcγRIa) (human) (UniProt P12314)
[2] = target: CD16-V158 (FcγRIIIa) (human) (UniProt P08637)
[3] = target: CD32-R131 (FcγRIIa) (human) (UniProt P12318)

Sequence of UniProt P08637 (P08637 17-208 F176V limits assumed): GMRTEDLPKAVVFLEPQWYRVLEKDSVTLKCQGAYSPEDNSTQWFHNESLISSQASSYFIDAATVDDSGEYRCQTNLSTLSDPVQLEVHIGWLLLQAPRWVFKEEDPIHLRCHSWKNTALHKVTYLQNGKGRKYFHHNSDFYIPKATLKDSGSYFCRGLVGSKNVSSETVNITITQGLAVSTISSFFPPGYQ
Sequence of UniProt P12314 (P12314 16-288 limits assumed): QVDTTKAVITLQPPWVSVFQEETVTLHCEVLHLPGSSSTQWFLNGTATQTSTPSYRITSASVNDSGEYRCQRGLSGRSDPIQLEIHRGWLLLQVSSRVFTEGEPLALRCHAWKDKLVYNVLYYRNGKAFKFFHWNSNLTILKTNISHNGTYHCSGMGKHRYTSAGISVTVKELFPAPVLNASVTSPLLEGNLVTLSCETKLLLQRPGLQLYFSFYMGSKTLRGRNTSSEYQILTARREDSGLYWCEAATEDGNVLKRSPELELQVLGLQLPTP

- Kd [1]: 530 nM
- Kd (CD64 (FcγRIa) (human)): 0.2 nM
- Kd [2]: 97 nM
- Kd [3]: 960 nM
Substance: IgG1f antibody (fucosylated, otherwise unmodified human IgG1f Fc region)

Reference: patent US20190382490A1
